These results are taken from publication PMC12416549 (2024).

First the molecules themselves.
T1: TNFR1 (Homo sapiens, UniProt P19438)
T1 chain: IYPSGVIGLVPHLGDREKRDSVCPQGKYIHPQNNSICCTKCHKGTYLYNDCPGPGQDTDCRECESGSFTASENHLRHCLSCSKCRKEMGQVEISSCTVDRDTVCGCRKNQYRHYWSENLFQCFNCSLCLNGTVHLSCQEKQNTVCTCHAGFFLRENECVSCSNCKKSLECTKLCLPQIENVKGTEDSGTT

B1: K8C (designed binder)
chain: SMEEEVECAAKEYEKKKKEAIEKHLEKLKAKDKEAAERFLKELEEAAKEYAKDEAKTMSEEEAKRRAKKYKEKVLLSELSEEEQKEIKEAEEKLVRTILKYVEEAAK
B2: L40C (designed binder)
chain: B1 chain with C8K, L40C
B3: E34S (designed binder)
chain: B1 chain with C8K, E34S
B4: S59G (designed binder)
chain: B1 chain with C8K, S59G
B5: A10V (designed binder)
chain: B1 chain with C8K, A10V
B6: I98L (designed binder)
chain: B1 chain with C8K, I98L
B7: E82T (designed binder)
chain: B1 chain with C8K, E82T
B8: Y50L (designed binder)
chain: B1 chain with C8K, Y50L
B9: E83R (designed binder)
chain: B1 chain with C8K, E83R
B10: K15Y (designed binder)
chain: B1 chain with C8K, K15Y
B11: A67F (designed binder)
chain: B1 chain with C8K, A67F
B12: K11Q (designed binder)
chain: B1 chain with C8K, K11Q
B13: E37N (designed binder)
chain: B1 chain with C8K, E37N
B14: D32E (designed binder)
chain: B1 chain with C8K, D32E
B15: K48A (designed binder)
chain: B1 chain with C8K, K48A
B16: K68P (designed binder)
chain: B1 chain with C8K, K68P
B17: L25M (designed binder)
chain: B1 chain with C8K, L25M
B18: A47Q (designed binder)
chain: B1 chain with C8K, A47Q
B19: A20T (designed binder)
chain: B1 chain with C8K, A20T
B20: K93W (designed binder)
chain: B1 chain with C8K, K93W
B21: K48L (designed binder)
chain: B1 chain with C8K, K48L
B22: S80V (designed binder)
chain: B1 chain with C8K, S80V
B23: A51W (designed binder)
chain: B1 chain with C8K, A51W
B24: K64G (designed binder)
chain: B1 chain with C8K, K64G
B25: E14C (designed binder)
chain: B1 chain with C8K, E14C
B26: A47C (designed binder)
chain: B1 chain with C8K, A47C
B27: A9H (designed binder)
chain: B1 chain with C8K, A9H
B28: E54Q (designed binder)
chain: B1 chain with C8K, E54Q
B29: L79I (designed binder)
chain: B1 chain with C8K, L79I
B30: E5P (designed binder)
chain: B1 chain with E5P, C8K
B31: K52D (designed binder)
chain: B1 chain with C8K, K52D
B32: Y70S (designed binder)
chain: B1 chain with C8K, Y70S
B33: R65N (designed binder)
chain: B1 chain with C8K, R65N
B34: K100A (designed binder)
chain: B1 chain with C8K, K100A
B35: E26K (designed binder)
chain: B1 chain with C8K, E26K
B36: E14D (designed binder)
chain: B1 chain with C8K, E14D
B37: A51T (designed binder)
chain: B1 chain with C8K, A51T
B38: K73P (designed binder)
chain: B1 chain with C8K, K73P
B39: R96T (designed binder)
chain: B1 chain with C8K, R96T
B40: S77F (designed binder)
chain: B1 chain with C8K, S77F
B41: E7M (designed binder)
chain: B1 chain with E7M, C8K
B42: K33R (designed binder)
chain: B1 chain with C8K, K33R
B43: Y70I (designed binder)
chain: B1 chain with C8K, Y70I
B44: F39G (designed binder)
chain: B1 chain with C8K, F39G
B45: E42Y (designed binder)
chain: B1 chain with C8K, E42Y
B46: S59N (designed binder)
chain: B1 chain with C8K, S59N
B47: M2V (designed binder)
chain: B1 chain with M2V, C8K
B48: A20D (designed binder)
chain: B1 chain with C8K, A20D
B49: E60T (designed binder)
chain: B1 chain with C8K, E60T
B50: L79P (designed binder)
chain: B1 chain with C8K, L79P
B51: L28M (designed binder)
chain: B1 chain with C8K, L28M
B52: K85Y (designed binder)
chain: B1 chain with C8K, K85Y
B53: E37A (designed binder)
chain: B1 chain with C8K, E37A
B54: M2T (designed binder)
chain: B1 chain with M2T, C8K
B55: K56H (designed binder)
chain: B1 chain with C8K, K56H

Positions count from the first letter of the chain named. Names and notes keep the numbering of the source.

The target in the test is T1, TNFR1. The experiment in a line: yeast display SC50.
Take B1: the “apparent Kd (screen)” value amounted to 0.956 nM.
With B2 the figure was 0.446 nM.
Take B3: the “apparent Kd (screen)” value was 0.718 nM.
With B4 the figure was 0.446 nM; with B5, 0.49 nM; with B6, 13.8 nM.
With B7 the figure was 0.49 nM; with B8, 0.79 nM.
For B9 the value was 0.539 nM; for B10, 0.446 nM.
Turning to B11, the “apparent Kd (screen)” value came out at 18.3 nM.
With B12 the figure was 0.446 nM; with B13, 0.446 nM.
For B14 the value was 0.956 nM; for B15, 0.446 nM; for B16, 7.07 nM.
With B17 the figure was 0.539 nM; with B18, 0.49 nM; with B19, 0.718 nM.
Regarding B20, the “apparent Kd (screen)” value was 2.73 nM.
With B21 the figure was 0.49 nM; with B22, 1.27 nM.
For B23 the value was 0.49 nM.
On to B24, for which the “apparent Kd (screen)” value worked out at 0.49 nM.
For the molecule B25, the “apparent Kd (screen)” value came out at 9.41 nM.
Consider B26, for which the “apparent Kd (screen)” value was 0.49 nM.
As for B27, the “apparent Kd (screen)” value was found to be 0.539 nM.
With B28 the figure was 10.4 nM.
Take B29: the “apparent Kd (screen)” value came to 1.86 nM.
With B30 the figure was 0.446 nM; with B31, 0.446 nM.
As for B32, the “apparent Kd (screen)” value amounted to 4.83 nM.
With B33 the figure was 1.4 nM.
Turning to B34, the “apparent Kd (screen)” value was 1.4 nM.
For B35 the value was 0.49 nM.
For B36 the value was 1.16 nM; for B37, 3.3 nM; for B38, 5.31 nM.
With B39 the figure was 1.54 nM; with B40, 1.05 nM; with B41, 10.4 nM.
In the case of B42, the “apparent Kd (screen)” value is 0.869 nM.
With B43 the figure was 20.2 nM.
For B44 the value was 2.73 nM; for B45, 6.43 nM.
Take B46: the “apparent Kd (screen)” value worked out at 1.69 nM.
For B47 the value was 0.446 nM.
For the molecule B48, the “apparent Kd (screen)” value amounted to 1.16 nM.
For B49 the value was 1.4 nM.
With B50 the figure was 7.78 nM.
For B51 the value was 0.956 nM; for B52, 0.446 nM.
Turning to B53, the “apparent Kd (screen)” value stood at 0.49 nM.
For B54 the value was 0.446 nM.
With B55 the figure was 4.83 nM.
